According to patent US20250073311A1, “DOSAGE REGIME” (ZEALAND PHARMA A/S, priority 2021, published 2025):
Numbered stars: 1 amine (or outer) side, 2 acyl side, 3 side chain; on linkers, the order of the positions; unused ones are H or OH. Square brackets hold non-standard residues; d marks the D form. Side chains are listed from the residue outwards. * marks the point of attachment. C18 diacid = O=C(O)CCCCCCCCCCCCCCCCC(=O)*; γGlu = O=C(O)[C@H](CCC(=O)[*:2])N[*:1]; Aib = CC(C)(N)C(=O)O

T1: human GLP-2 receptor (hGLP2-R) (human, UniProt O95838)
T1 sequence: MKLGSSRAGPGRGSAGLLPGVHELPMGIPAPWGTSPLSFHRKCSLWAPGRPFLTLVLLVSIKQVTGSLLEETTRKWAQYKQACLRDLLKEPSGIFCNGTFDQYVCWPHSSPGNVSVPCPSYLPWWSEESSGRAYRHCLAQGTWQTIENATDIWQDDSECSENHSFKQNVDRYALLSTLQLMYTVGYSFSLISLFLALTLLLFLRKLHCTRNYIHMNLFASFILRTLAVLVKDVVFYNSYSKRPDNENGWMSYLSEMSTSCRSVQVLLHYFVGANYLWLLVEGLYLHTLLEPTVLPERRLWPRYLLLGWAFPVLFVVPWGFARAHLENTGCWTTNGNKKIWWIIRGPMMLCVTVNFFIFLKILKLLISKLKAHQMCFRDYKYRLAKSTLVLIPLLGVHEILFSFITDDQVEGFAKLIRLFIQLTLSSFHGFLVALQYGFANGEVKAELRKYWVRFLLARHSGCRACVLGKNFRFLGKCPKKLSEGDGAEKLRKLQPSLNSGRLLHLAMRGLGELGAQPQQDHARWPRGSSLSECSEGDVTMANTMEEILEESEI


Tests used:
[1] = target: human glucagon-like peptide 1 receptor (GLP-1R) (human, UniProt P43220); assay: cell-based or functional assay
[2] = target: T1, human GLP-2 receptor (hGLP2-R); assay: cell-based or functional assay

Binder	EC50 GLP-1 (nM), cAMP AlphaScreen [1] [nM]	EC50 GLP-2 (nM), cAMP AlphaScreen [2] [nM]
H-H[Aib]EGTFTSELATILDK([γGlu-C18 diacid])LAARDFIAWLIEHKITD-OH (SMILES CC[C@H](C)[C@H](NC(=O)[C@H](Cc1ccccc1)NC(=O)[C@H](CC(=O)O)NC(=O)[C@H](CCCNC(=N)N)NC(=O)[C@H](C)NC(=O)[C@H](C)NC(=O)[C@H](CC(C)C)NC(=O)[C@H](CCCCNC(=O)CC[C@H](NC(=O)CCCCCCCCCCCCCCCCC(=O)O)C(=O)O)NC(=O)[C@H](CC(=O)O)NC(=O)[C@H](CC(C)C)NC(=O)[C@@H](NC(=O)[C@@H](NC(=O)[C@H](C)NC(=O)[C@H](CC(C)C)NC(=O)[C@H](CCC(=O)O)NC(=O)[C@H](CO)NC(=O)[C@@H](NC(=O)[C@H](Cc1ccccc1)NC(=O)[C@@H](NC(=O)CNC(=O)[C@H](CCC(=O)O)NC(=O)C(C)(C)NC(=O)[C@@H](N)Cc1c[nH]cn1)[C@@H](C)O)[C@@H](C)O)[C@@H](C)O)[C@@H](C)CC)C(=O)N[C@@H](C)C(=O)N[C@@H](Cc1c[nH]c2ccccc12)C(=O)N[C@@H](CC(C)C)C(=O)N[C@H](C(=O)N[C@@H](CCC(=O)O)C(=O)N[C@@H](Cc1c[nH]cn1)C(=O)N[C@@H](CCCCN)C(=O)N[C@H](C(=O)N[C@H](C(=O)N[C@@H](CC(=O)O)C(=O)O)[C@@H](C)O)[C@@H](C)CC)[C@@H](C)CC) [Compound 12]	0.14	0.11
H-H[Aib]EGTFSSELATILDK([γGlu-C18 diacid])LAARDFIAWLIAHKITD-OH (SMILES CC[C@H](C)[C@H](NC(=O)[C@H](CC(C)C)NC(=O)[C@H](Cc1c[nH]c2ccccc12)NC(=O)[C@H](C)NC(=O)[C@@H](NC(=O)[C@H](Cc1ccccc1)NC(=O)[C@H](CC(=O)O)NC(=O)[C@H](CCCNC(=N)N)NC(=O)[C@H](C)NC(=O)[C@H](C)NC(=O)[C@H](CC(C)C)NC(=O)[C@H](CCCCNC(=O)CC[C@H](NC(=O)CCCCCCCCCCCCCCCCC(=O)O)C(=O)O)NC(=O)[C@H](CC(=O)O)NC(=O)[C@H](CC(C)C)NC(=O)[C@@H](NC(=O)[C@@H](NC(=O)[C@H](C)NC(=O)[C@H](CC(C)C)NC(=O)[C@H](CCC(=O)O)NC(=O)[C@H](CO)NC(=O)[C@H](CO)NC(=O)[C@H](Cc1ccccc1)NC(=O)[C@@H](NC(=O)CNC(=O)[C@H](CCC(=O)O)NC(=O)C(C)(C)NC(=O)[C@@H](N)Cc1c[nH]cn1)[C@@H](C)O)[C@@H](C)O)[C@@H](C)CC)[C@@H](C)CC)C(=O)N[C@@H](C)C(=O)N[C@@H](Cc1c[nH]cn1)C(=O)N[C@@H](CCCCN)C(=O)N[C@H](C(=O)N[C@H](C(=O)N[C@@H](CC(=O)O)C(=O)O)[C@@H](C)O)[C@@H](C)CC) [Compound 13]	2.2	0.099
H-H[Aib]EGSFTSELATILDK([γGlu-C18 diacid])LAARDFIAWLIAHKITD-OH (SMILES CC[C@H](C)[C@H](NC(=O)[C@H](CC(C)C)NC(=O)[C@H](Cc1c[nH]c2ccccc12)NC(=O)[C@H](C)NC(=O)[C@@H](NC(=O)[C@H](Cc1ccccc1)NC(=O)[C@H](CC(=O)O)NC(=O)[C@H](CCCNC(=N)N)NC(=O)[C@H](C)NC(=O)[C@H](C)NC(=O)[C@H](CC(C)C)NC(=O)[C@H](CCCCNC(=O)CC[C@H](NC(=O)CCCCCCCCCCCCCCCCC(=O)O)C(=O)O)NC(=O)[C@H](CC(=O)O)NC(=O)[C@H](CC(C)C)NC(=O)[C@@H](NC(=O)[C@@H](NC(=O)[C@H](C)NC(=O)[C@H](CC(C)C)NC(=O)[C@H](CCC(=O)O)NC(=O)[C@H](CO)NC(=O)[C@@H](NC(=O)[C@H](Cc1ccccc1)NC(=O)[C@H](CO)NC(=O)CNC(=O)[C@H](CCC(=O)O)NC(=O)C(C)(C)NC(=O)[C@@H](N)Cc1c[nH]cn1)[C@@H](C)O)[C@@H](C)O)[C@@H](C)CC)[C@@H](C)CC)C(=O)N[C@@H](C)C(=O)N[C@@H](Cc1c[nH]cn1)C(=O)N[C@@H](CCCCN)C(=O)N[C@H](C(=O)N[C@H](C(=O)N[C@@H](CC(=O)O)C(=O)O)[C@@H](C)O)[C@@H](C)CC) [Compound 14]	0.57	0.086
H-H[Aib]EGTFTSELATILDK([γGlu-C18 diacid])LAARDFIAWLIAHKITD-OH (SMILES CC[C@H](C)[C@H](NC(=O)[C@H](CC(C)C)NC(=O)[C@H](Cc1c[nH]c2ccccc12)NC(=O)[C@H](C)NC(=O)[C@@H](NC(=O)[C@H](Cc1ccccc1)NC(=O)[C@H](CC(=O)O)NC(=O)[C@H](CCCNC(=N)N)NC(=O)[C@H](C)NC(=O)[C@H](C)NC(=O)[C@H](CC(C)C)NC(=O)[C@H](CCCCNC(=O)CC[C@H](NC(=O)CCCCCCCCCCCCCCCCC(=O)O)C(=O)O)NC(=O)[C@H](CC(=O)O)NC(=O)[C@H](CC(C)C)NC(=O)[C@@H](NC(=O)[C@@H](NC(=O)[C@H](C)NC(=O)[C@H](CC(C)C)NC(=O)[C@H](CCC(=O)O)NC(=O)[C@H](CO)NC(=O)[C@@H](NC(=O)[C@H](Cc1ccccc1)NC(=O)[C@@H](NC(=O)CNC(=O)[C@H](CCC(=O)O)NC(=O)C(C)(C)NC(=O)[C@@H](N)Cc1c[nH]cn1)[C@@H](C)O)[C@@H](C)O)[C@@H](C)O)[C@@H](C)CC)[C@@H](C)CC)C(=O)N[C@@H](C)C(=O)N[C@@H](Cc1c[nH]cn1)C(=O)N[C@@H](CCCCN)C(=O)N[C@H](C(=O)N[C@H](C(=O)N[C@@H](CC(=O)O)C(=O)O)[C@@H](C)O)[C@@H](C)CC) [Compound 15]	0.25	0.16
H-H[Aib]EGTFTSELATILDK([γGlu-C18 diacid])EAARLFIAWLIEHKITD-OH (SMILES CC[C@H](C)[C@H](NC(=O)[C@H](Cc1ccccc1)NC(=O)[C@H](CC(C)C)NC(=O)[C@H](CCCNC(=N)N)NC(=O)[C@H](C)NC(=O)[C@H](C)NC(=O)[C@H](CCC(=O)O)NC(=O)[C@H](CCCCNC(=O)CC[C@H](NC(=O)CCCCCCCCCCCCCCCCC(=O)O)C(=O)O)NC(=O)[C@H](CC(=O)O)NC(=O)[C@H](CC(C)C)NC(=O)[C@@H](NC(=O)[C@@H](NC(=O)[C@H](C)NC(=O)[C@H](CC(C)C)NC(=O)[C@H](CCC(=O)O)NC(=O)[C@H](CO)NC(=O)[C@@H](NC(=O)[C@H](Cc1ccccc1)NC(=O)[C@@H](NC(=O)CNC(=O)[C@H](CCC(=O)O)NC(=O)C(C)(C)NC(=O)[C@@H](N)Cc1c[nH]cn1)[C@@H](C)O)[C@@H](C)O)[C@@H](C)O)[C@@H](C)CC)C(=O)N[C@@H](C)C(=O)N[C@@H](Cc1c[nH]c2ccccc12)C(=O)N[C@@H](CC(C)C)C(=O)N[C@H](C(=O)N[C@@H](CCC(=O)O)C(=O)N[C@@H](Cc1c[nH]cn1)C(=O)N[C@@H](CCCCN)C(=O)N[C@H](C(=O)N[C@H](C(=O)N[C@@H](CC(=O)O)C(=O)O)[C@@H](C)O)[C@@H](C)CC)[C@@H](C)CC) [Compound 16]	0.073	0.68
H-H[Aib]EGTFSSELATILDK([γGlu-C18 diacid])QAARDFIAWLIQHKITD-OH (SMILES CC[C@H](C)[C@H](NC(=O)[C@H](Cc1ccccc1)NC(=O)[C@H](CC(=O)O)NC(=O)[C@H](CCCNC(=N)N)NC(=O)[C@H](C)NC(=O)[C@H](C)NC(=O)[C@H](CCC(N)=O)NC(=O)[C@H](CCCCNC(=O)CC[C@H](NC(=O)CCCCCCCCCCCCCCCCC(=O)O)C(=O)O)NC(=O)[C@H](CC(=O)O)NC(=O)[C@H](CC(C)C)NC(=O)[C@@H](NC(=O)[C@@H](NC(=O)[C@H](C)NC(=O)[C@H](CC(C)C)NC(=O)[C@H](CCC(=O)O)NC(=O)[C@H](CO)NC(=O)[C@H](CO)NC(=O)[C@H](Cc1ccccc1)NC(=O)[C@@H](NC(=O)CNC(=O)[C@H](CCC(=O)O)NC(=O)C(C)(C)NC(=O)[C@@H](N)Cc1c[nH]cn1)[C@@H](C)O)[C@@H](C)O)[C@@H](C)CC)C(=O)N[C@@H](C)C(=O)N[C@@H](Cc1c[nH]c2ccccc12)C(=O)N[C@@H](CC(C)C)C(=O)N[C@H](C(=O)N[C@@H](CCC(N)=O)C(=O)N[C@@H](Cc1c[nH]cn1)C(=O)N[C@@H](CCCCN)C(=O)N[C@H](C(=O)N[C@H](C(=O)N[C@@H](CC(=O)O)C(=O)O)[C@@H](C)O)[C@@H](C)CC)[C@@H](C)CC) [Compound 17]	0.9	0.33
H-H[Aib]EGSFTSELATILDK([γGlu-C18 diacid])QAARDFIAWLIQHKITD-OH (SMILES CC[C@H](C)[C@H](NC(=O)[C@H](Cc1ccccc1)NC(=O)[C@H](CC(=O)O)NC(=O)[C@H](CCCNC(=N)N)NC(=O)[C@H](C)NC(=O)[C@H](C)NC(=O)[C@H](CCC(N)=O)NC(=O)[C@H](CCCCNC(=O)CC[C@H](NC(=O)CCCCCCCCCCCCCCCCC(=O)O)C(=O)O)NC(=O)[C@H](CC(=O)O)NC(=O)[C@H](CC(C)C)NC(=O)[C@@H](NC(=O)[C@@H](NC(=O)[C@H](C)NC(=O)[C@H](CC(C)C)NC(=O)[C@H](CCC(=O)O)NC(=O)[C@H](CO)NC(=O)[C@@H](NC(=O)[C@H](Cc1ccccc1)NC(=O)[C@H](CO)NC(=O)CNC(=O)[C@H](CCC(=O)O)NC(=O)C(C)(C)NC(=O)[C@@H](N)Cc1c[nH]cn1)[C@@H](C)O)[C@@H](C)O)[C@@H](C)CC)C(=O)N[C@@H](C)C(=O)N[C@@H](Cc1c[nH]c2ccccc12)C(=O)N[C@@H](CC(C)C)C(=O)N[C@H](C(=O)N[C@@H](CCC(N)=O)C(=O)N[C@@H](Cc1c[nH]cn1)C(=O)N[C@@H](CCCCN)C(=O)N[C@H](C(=O)N[C@H](C(=O)N[C@@H](CC(=O)O)C(=O)O)[C@@H](C)O)[C@@H](C)CC)[C@@H](C)CC) [Compound 18]	0.19	0.21
